Source: article PMC3506659, “Snm1B Interacts with PSF2” (PLoS ONE, 2012)
Each block holds one molecule with its values, some of them ahead of it.

How the values were obtained:
[1] = molecular target: N-terminal Myc epitope-tagged human PSF2 (Myc-PSF2) (UniProt Q9Y248); experiment: co-immunoprecipitation (IP anti-Flag, IB anti-Myc), band ratio; settings: 293T cells, transient expression
Flag-Snm1B^Δ222–363 = molecular target: T1, Flag-Snm1B^Δ222–363 (human, UniProt Q9H816 1-221; Q9H816 364-532); experiment: co-IP; 293T transiently co-transfected, RIPA lysate, Flag-Snm1B immunoprecipitated with anti-Flag M2 affinity gel at 4°C overnight, immunoblot for Myc-PSF2 or Mus81; with or without co-expressed Myc-PSF2 or HA-Mus81; settings: partners not purified
T1 construct: RGR is my translation read in frame from its first base; source: 293T, transiently transfected (pLPC), in lysate; not shown: Flag, N-terminal, kept
T1 chain: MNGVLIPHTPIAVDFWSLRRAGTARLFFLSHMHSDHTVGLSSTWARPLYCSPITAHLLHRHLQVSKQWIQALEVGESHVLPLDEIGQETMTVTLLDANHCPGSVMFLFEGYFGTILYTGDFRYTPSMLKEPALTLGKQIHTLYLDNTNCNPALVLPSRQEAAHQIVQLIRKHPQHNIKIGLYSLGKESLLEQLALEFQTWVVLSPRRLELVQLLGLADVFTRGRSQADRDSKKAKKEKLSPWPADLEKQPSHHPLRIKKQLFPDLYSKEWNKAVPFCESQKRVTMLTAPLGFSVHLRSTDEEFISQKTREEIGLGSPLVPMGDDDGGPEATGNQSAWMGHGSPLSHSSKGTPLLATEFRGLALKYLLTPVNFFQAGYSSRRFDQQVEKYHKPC

GFP-Flag-Snm1B^221–363 = molecular target: T2, GFP-Flag-Snm1B^221–363 (human, UniProt Q9H816 221-363); experiment: co-IP; 293T transiently co-transfected, RIPA lysate, GFP-Flag-Snm1B fragments immunoprecipitated with anti-GFP antibody and GammaBind G Sepharose, immunoblot anti-Myc; settings: partners not purified
T2 construct: Named GFP-Flag-Snm1B: the Flag tag is at the 5′ end of the Snm1B fragment, GFP is fused in frame; also called PSF2 BR1; source: 293T, transiently transfected (pEGFP-C3), in lysate; not shown: Flag, N-terminal, kept
T2 sequence (looked up): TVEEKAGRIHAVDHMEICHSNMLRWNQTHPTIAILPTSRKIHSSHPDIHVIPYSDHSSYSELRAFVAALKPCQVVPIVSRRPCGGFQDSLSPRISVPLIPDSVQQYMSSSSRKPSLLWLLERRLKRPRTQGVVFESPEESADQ

[2] = molecular target: T3, N-terminal Flag epitope-tagged human Snm1B (Flag-Snm1B) (human, UniProt Q9H816 1-532); experiment: co-IP; 293T transiently co-transfected, RIPA lysate, Flag-Snm1B immunoprecipitated with anti-Flag M2 affinity gel at 4°C overnight, immunoblot for Myc-PSF2 or Mus81; with or without co-expressed Myc-PSF2 or HA-Mus81; settings: partners not purified
T3 construct: also called Flag-Snm1B-WT; Flag-Snm1B^WT; source: 293T, transiently transfected (pLPC), in lysate; not shown: Flag, N-terminal, kept
T3 sequence (looked up): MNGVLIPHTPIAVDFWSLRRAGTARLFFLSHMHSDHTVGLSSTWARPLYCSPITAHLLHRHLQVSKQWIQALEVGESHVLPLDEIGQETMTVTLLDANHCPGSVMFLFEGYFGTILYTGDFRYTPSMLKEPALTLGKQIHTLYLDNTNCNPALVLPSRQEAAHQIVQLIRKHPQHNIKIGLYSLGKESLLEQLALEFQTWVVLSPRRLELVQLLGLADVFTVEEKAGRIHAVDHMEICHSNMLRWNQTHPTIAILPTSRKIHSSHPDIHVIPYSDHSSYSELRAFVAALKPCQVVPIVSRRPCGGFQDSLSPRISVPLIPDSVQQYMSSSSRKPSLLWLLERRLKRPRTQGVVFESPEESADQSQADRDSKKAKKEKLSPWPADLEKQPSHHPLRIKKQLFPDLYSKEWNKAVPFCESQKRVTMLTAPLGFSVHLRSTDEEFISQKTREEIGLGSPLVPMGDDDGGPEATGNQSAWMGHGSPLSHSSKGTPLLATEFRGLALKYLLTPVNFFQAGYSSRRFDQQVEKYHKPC

- other: normalized Myc-PSF2:Flag-Snm1B ratio ([1]; no Myc-TRF2 co-expressed, parent: 1): 1.05
- other: normalized Myc-PSF2:Flag-Snm1B ratio ([1]; wild type Myc-TRF2 co-expressed (parent value is Flag-Snm1B WT + Myc-TRF2 WT + Myc-PSF2 lane), parent: 0.41): 0.81
Molecule: N-terminal Flag epitope-tagged human Snm1B (Flag-Snm1B) (from UniProt Q9H816) N2

- fold of co-immunoprecipitated Myc-PSF2 against Flag-Snm1B WT (Flag-Snm1B^Δ222–363): ~6 fold less
- fold of co-immunoprecipitated Myc-PSF2 against GFP-Flag-Snm1B 413–532 (GFP-Flag-Snm1B^221–363): ~3 fold more
B1: N-terminal Myc epitope-tagged human PSF2 (Myc-PSF2) (natural protein, UniProt Q9Y248 1-185, looked up)
chain: MDAAEVEFLAEKELVTIIPNFSLDKIYLIGGDLGPFNPGLPVEVPLWLAINLKQRQKCRLLPPEWMDVEKLEKMRDHERKEETFTPMPSPYYMELTKLLLNHASDNIPKADEIRTLVKDMWDTRIAKLRVSADSFVRQQEAHAKLDNLTLMEINTSGTFLTQALNHMYKLRTNLQPLESTQSQDF
notes: PSF2, subunit of the GINS complex, human, full length; amplified from clone MGC-673 (ATCC); source: 293T, transiently transfected (pCMV-MYC), in lysate; not shown: Myc, N-terminal, kept

- fold increase of co-immunoprecipitated Mus81 with Myc-PSF2 against without Myc-PSF2 [2]: > 2 fold
B2: HA epitope-tagged Mus81 (HA-Mus81) (natural protein, UniProt Q96NY9 1-551, looked up)
chain: MAAPVRLGRKRPLPACPNPLFVRWLTEWRDEATRSRRRTRFVFQKALRSLRRYPLPLRSGKEAKILQHFGDGLCRMLDERLQRHRTSGGDHAPDSPSGENSPAPQGRLAEVQDSSMPVPAQPKAGGSGSYWPARHSGARVILLVLYREHLNPNGHHFLTKEELLQRCAQKSPRVAPGSARPWPALRSLLHRNLVLRTHQPARYSLTPEGLELAQKLAESEGLSLLNVGIGPKEPPGEETAVPGAASAELASEAGVQQQPLELRPGEYRVLLCVDIGETRGGGHRPELLRELQRLHVTHTVRKLHVGDFVWVAQETNPRDPANPGELVLDHIVERKRLDDLCSSIIDGRFREQKFRLKRCGLERRVYLVEEHGSVHNLSLPESTLLQAVTNTQVIDGFFVKRTADIKESAAYLALLTRGLQRLYQGHTLRSRPWGTPGNPESGAMTSPNPLCSLLTFSDFNAGAIKNKAQSVREVFARQLMQVRGVSGEKAAALVDRYSTPASLLAAYDACATPKEQETLLSTIKCGRLQRNLGPALSRTLSQLYCSYGPLT
notes: Mus81, subunit of the Mus81/Eme1 endonuclease; amplified from clone MGC:14953 (Imagenes); Detected with an anti-Mus81 antibody, which may also see the endogenous Mus81 of 293T cells; source: 293T, transiently transfected (pcDNA3), in lysate; not shown: HA, N-terminal, kept
